Measured values reported in the nanobody polyreactivity screen of Harvey et al. (2022).

Test: yeast display, Sf9 membrane polyspecificity reagent, FACS + sequencing; frameworks hold sequencing errors
Outline: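 Nanobodies from a synthetic yeast display library (Saccharomyces cerevisiae BJ5465), induced 36–48 hours with galactose, were stained 1 hour at 4 °C with 10% biotinylated, detergent-solubilized Sf9 membrane reagent, enriched on streptavidin microbeads, then FACS-sorted. Anti-HA (expression) and streptavidin (reagent binding) fluorescence set low and high (top ~1%) gates. Polyreactivity labels come from the gate of origin. Genes were colony-PCR amplified, MiSeq 2 × 250 sequenced and filtered by CDR length.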

| Sequence | polyreactivity (PSR sort gate) |
| --- | --- |
| QVQLVESGGGLVQAGASLRLSCAASGRIFSKNAMGWYRQAPGKERELVAAISANTGSTYYADSVKGRFTISRDNAKNTVYLQMNILKPEDTAVYYCATTWTIRRYRYTPRLVDYWGQGTQVTVSS | low polyreactivity |
| QVQLVESGGGLVQAGASLRLSCAASGRTFGYYAMGWYRQAPGKERELVATISRRGGRTYYADSVKGRFTISRDNAKNTVYLQMNSLKPEDTAVYYCNKYLASYSYSDLVYWGQGTQVTVSS | high polyreactivity |
| QVQLVESGGGLVQAGASLRLSCAASGRTFNVYAMGWYRQAPGKERELVASISSGTSTNYADSVKGRFTISRDNAKNTVYLQMNSLKPEDTAVYYCNADFVWNGYSGRIRDYYWGQGTQVTVSS | low polyreactivity |
| QVQLVESGGGLVQAGASLRLSCAASGRTFSNYEMGSYRQAPGKERELVAAISGTGGTTYYADSVKGRFTISRVNEKNTVYLQMNSLKPEDTAVYYCAARSHTGYFPPSYYSGQGTQVTVSS | high polyreactivity |
| QVQLVESGGGLVQAGASLRLSCAASGRTFWYNAMGGYRQAPGKERELVAAISSTGGRTYYADSVKGRFTISRDNAKNTVYLQMNSLKPEDTAVYYCAARQLSSHYDYWGQGTQVTVSS | low polyreactivity |
| QVQLVESGGGLVQAGASLRLSCAASGSIFKDNAMGWYRQAPGKERELVAAISWNGGSTYYADSVKGRFTISRDNAKNTVYLHMNSLKPEDTAVYYCATRIYGWSFGSWYKYDYWGQGTQVTVSS | low polyreactivity |
| QVQLVESGGGLVQAGASLRLSCAASGSIFYGNTMGWYRQAPGKERELVAAISSGGSTKYADSVKGRFTISRDNAKNTVYLQMNSLKPEDTAVYYCAADLPRYWVTWMDYWGQGTQVSVSS | low polyreactivity |
| QVQLVESGGGLVQAGASLRLSCAASGSIFYHNTMGWYRQAPGKERELITYYADSVKRRFTISRDNAKNTVYLQMNSLKPEDTAVYYCAASPVYRTGPGDYDYWGQGTQVTVSS | low polyreactivity |
| QVQLVESGGGLVQAGASLRLSCAASGSISKSYAMGWYRQAPGKERELVAAISWRGGSTYADSVKGRFTISRDNAKNTVYLQMNSLKPEDTAVYYCAATNYGTFWGGQSERYDYWGQGTQVTVSS | low polyreactivity |
| QVQLVESGGGLVQAGASLRLSCAASGSTFHSYAMGWYRQAPGKERELVAAISTSGGSTYYADSVKGRFTISRDNAKNTVYLQMNSLKPEDTAVYYCAAYSISSRMNYWGQGTQVTVSS | high polyreactivity |
| QVQLVESGGGLVQAGASLRLSCAASGSTFKYYTMGWYRQAPGKERALVAAISFSGARTYYADSVKGRFTISRDNAKNTVYLQMNSLKPEDTAVYYCAKASSYSRRYEYWGQGTQVTVSS | high polyreactivity |
| QVQLVESGGGLVQAGASLRLSCAASGSTFYYNAMGWYRQAPGKERELVAAISKSSSRTYYADSVKGRFTISRDNAKNTVFLQMNSLKPEDTAGYYCAADAVYYHFDYWGQGTQVTVSS | high polyreactivity |
| QVQLVESGGGLVQAGASLRLSCAASGYIFVRYAMGWYRQAPGKEREFVAAISSSGGSTRYADSVKVRFTISRDNAKNTVYLQMNSLKPEDTAVYYCAATRVARHGSPMYYWGQGTKVTVSS | high polyreactivity |
| QVQLVESGGGLVQAGASLSLSCAASGYIFARYAMGLYIQSPGKERELVAAIRGDGGSTYYADSVKGRFTISRDNAKNTVYLQMNSLKPVDTAVYYCSTEIPWVSYYWTYYFWGQCTQVTVSS | high polyreactivity |
| QVQLVESGGGLVQAGASLSLSSAASGYIFYRYAMGWYRQAPGKERELVAAISSNGVSTYYADSVKGRFTISRDNAKNTVYLQLISLKPEDTAVYYCARDVYASPRRYNSRYNYWGQGTQVTVSS | low polyreactivity |
| QVQLVESGGGLVQAGCSLRFSSAASGRISNYPMGWYRQPPGKERELVAAITWSGGSTYADSVKGRFTISRDNAKNTVYLQMNSLKPEDTAVYYWAARGTRYWDYRYYAYNYWGQGTQVTVSS | high polyreactivity |

| Sequence | polyreactivity (PSR sort gate) |
| --- | --- |
| QVQLVESGGGLVQAGCSLRISCAASGRIIKSYASGWYRQAPGKERELVAAITWSSGSTYYADSVKGRFTISRDNAKNTVYFQMKRLKPEDTEVYYCAADPIRYRSRHKYGFWGHGTQVTVSS | low polyreactivity |
| QVQLVESGGGLVQAGCSLRLICAASGSIFDEYAMGWYRKAPGKERELVAAITSNGGSTYADSVKGRFTISRDNAKNTVYLQMNSLKPEDTAVYYCAADYFVYWYYGYGYWGQGTQVTVSS | low polyreactivity |
| QVQLVESGGGLVQAGCSLRLRCAASGFTFQYNGMGWYRQAPGKERELVAAINWSGGTTYYADSVKGRFTISRDNAKNTVYLLMNCLKPEDTAVYYCAKGYWRRYSPVGGLGYDYWGQGTQVSVSS | high polyreactivity |
| QVQLVESGGGLVQAGCSLRLSCAACGSIFRAYAMGWYRQAPGKERELVADISRSGGSTYYADSVKGRFTISRDNAKNTVYLQMNSLKPEDTAFYYCAASYLGGQWRALGYDYWGQGTQVTVSS | low polyreactivity |
| QVQLVESGGGLVQAGCSLRLSCAASGFIFQANAMGWYRQAPGKERELVAAIDDGDSTYADSVKGRFTISRDNAKNTVYLQMNSLKPEDTAVYYCNADLYGAQDRRLDYYAEGYWGQGTQVTVSS | low polyreactivity |
| QVQLVESGGGLVQAGCSLRLSCAASGFIFSRYTMGWYRQAPGKERELVAAISRRGGNTYYADSVKGRFTISRDNAKNTVYLQMNSLKPEDTAVYYCADEYNQSFDYWGQGTQVTVSS | low polyreactivity |
| QVQLVESGGGLVQAGCSLRLSCAASGFIILNYTMGLYRQAPGKERELVAAISNGSDRTYYADSVKGRFTISRDNAKNTVYLQMISLKTEDTAVYYCAKDRDFSSPPTESGFDYWGQGTQVNVSS | low polyreactivity |
| QVQLVESGGGLVQAGCSLRLSCAASGFIYPVNAMGWYRQAPGKERELVAAITYSTGSTYYADSVKGRFTISRDNAKNTVYLQMNSLKPEDTAVYYCAADVPPGEVVTNDYWGQGTQVTVSS | low polyreactivity |
| QVQLVESGGGLVQAGCSLRLSCAASGFTFGRNAMGWYRQAPGKEREFVADISGSVGSTYYADSVKGRFTISRDNAKNTVYLQMNSLKPEDTAVYYCAADTLYPRWEFDYWGQGTQVTVSS | high polyreactivity |
| QVQLVESGGGLVQAGCSLRLSCAASGFTFHTYAMGWYRQAPGKERELVAAITGRGGSTYYADSVKGRFTISRDNAKNTVYLQMNSLKPEDTAVYYCTAYRRGWGDRMYYWGLGTQVTVSS | high polyreactivity |
| QVQLVESGGGLVQAGCSLRLSCAASGFTFPIYAMGWYRQAPGKEREFVAAITASGDNTYYADSVKGRFTISRDNAKNTVYLQINSLKPEDTAVYYCAADWFVDWWEYDYWGQGTQVTVSS | low polyreactivity |
| QVQLVESGGGLVQAGCSLRLSCAASGIIFAWYAMGWYRQAPGKERELVAGISQSGGRTYYADSVKGRFTISRDNAKNTVYLQMNSLKPEDTAVYYCAAERPYSRVGYYYWGQGTQVTVSS | high polyreactivity |
| QVQLVESGGGLVQAGCSLRLSCAASGIIYINYAMGWYRQAPGKERELVAVITRGGSTYYADSVKGRFTISRDNAKNTVYLLMNSLKPEDTAVYYCNARYLSWWTGRFNYWGQGTQVTVSS | high polyreactivity |
| QVQLVESGGGLVQAGCSLRLSCAASGITFTEYAMGWSRQAPGKERELGATISYGGGITYYADSVKGRFTISRDNAKNTVYLQMNSLKPEDTAVYYCAADGLSQVQRGMDYWGQGTQVTVSS | low polyreactivity |
| QVQLVESGGGLVQAGCSLRLSCAASGLIFPGYDMGWYRQAPGKERELVADISDSGANTYYADSVKGRFTISRDNAKNTVYLQMNSLKPEDTAVYYCAADSSWWYGTSFGRFDYWGQGTQVTVSS | low polyreactivity |
